For five substances, Kd results are on record in US20180355012A1.

pKd: −log10 of the molar value.

Experiment [1] addresses HLA-A1: … pMHC complex (MageA3 tumor specific antigen). Put plainly: BLI (forteBIO Oke), biotinylated pMHC on SA sensor, soluble TCR in solution, 1:1 fit. A general note: BLI is a label-free optical method that tracks binding on a fibre tip over time.
For experiment [2], the target named is HLA-A2/… pMHC complex (NY-ESO-1 tumor specific antigen). Described as above.
For experiment [3], the target named is HLA-B4405: … pMHC complex.

“MGA3 TCR with an artificial interchain disulfide bond between position 10 of TRAC*01 exon 1 and position 20 of TRBC1*01 or TRBC2*01 exon 1”: the pKd – broadly, −log10 of the Kd, conventionally taken in molar units – in experiment [1] is 5.46. Same read-out and setting: in the case of “MGA3 TCR with an artificial interchain disulfide bond between position 89 of TRAC*01 exon 1 and position 19 of TRBC1*01 or TRBC2*01 exon 1” it was 5.69.

For the substance “MGA3 TCR with an artificial interchain disulfide bond between position 53 of TRAC*01 exon 1 and position 54 of TRBC1*01 or TRBC2*01 exon 1”, the pKd in experiment [1] was 5.85. Consider “1G4 TCR with an artificial interchain disulfide bond between position 53 of TRAC*01 exon 1 and position 54 of TRBC1*01 or TRBC2*01 exon 1”, for which, in experiment [2], the pKd was 5.16. For “LC13 TCR with an artificial interchain disulfide bond between position 10 of TRAC*01 exon 1 and posi”, the pKd in experiment [3] is 5.00.
